Test results as given in PMC9482650, “Quantitative fragmentomics allow affinity mapping of interactomes” (Nature Communications, 2022).

What follows are binders tested against T1, HTRA3, P83110 (assay: holdup assay). Settings: plain residues with an end cap or a label only (N-terminal biotin on a linker: ado-ado).
T1 sequence (P83110 354-453, limits assumed, looked up): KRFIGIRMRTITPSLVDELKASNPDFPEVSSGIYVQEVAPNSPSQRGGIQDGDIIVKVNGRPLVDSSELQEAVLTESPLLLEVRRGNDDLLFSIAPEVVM
Design: key: below the threshold = too weak to quantify, mostly under pKd 3.1 to 4
Work on QRPYRRGSEI [KCNJ18, B7U540] yielded a pKd of 3.58.

What follows are binders tested against GRIP2_6, Q9C0E4 (assay: holdup assay). Settings: plain residues with an end cap or a label only (N-terminal biotin on a linker: ado-ado).
Sequence of GRIP2_6, Q9C0E4 (Q9C0E4 648-740): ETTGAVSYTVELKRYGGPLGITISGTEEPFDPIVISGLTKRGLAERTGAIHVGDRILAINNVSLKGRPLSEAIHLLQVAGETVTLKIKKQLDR
Design: key: below the threshold = too weak to quantify, mostly under pKd 3.1 to 4
QRPYRRGSEI [KCNJ18, B7U540] was tested, and the pKd was “below the threshold”.

These binders were tested against T2, LRRC7, Q96NW7 (assay: holdup assay). Settings: plain residues with an end cap or a label only (N-terminal biotin on a linker: ado-ado).
T2 sequence (Q96NW7 1440-1537, limits assumed, looked up): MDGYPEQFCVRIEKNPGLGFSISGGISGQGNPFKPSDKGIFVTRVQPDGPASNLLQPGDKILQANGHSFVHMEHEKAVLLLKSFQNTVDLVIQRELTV
Design: key: below the threshold = too weak to quantify, mostly under pKd 3.1 to 4
In the case of QRPYRRGSEI [KCNJ18, B7U540], the pKd is reported as “below the threshold”.

These binders were tested against MAGI3_2, Q5TCQ9 (assay: holdup assay). Settings: plain residues with an end cap or a label only (N-terminal biotin on a linker: ado-ado).
Sequence of MAGI3_2, Q5TCQ9 (Q5TCQ9 398-503): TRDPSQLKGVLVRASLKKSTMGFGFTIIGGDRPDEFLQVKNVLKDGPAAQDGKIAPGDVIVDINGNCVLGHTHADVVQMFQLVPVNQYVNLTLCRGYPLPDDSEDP
Design: key: below the threshold = too weak to quantify, mostly under pKd 3.1 to 4
In the case of QRPYRRGSEI [KCNJ18, B7U540], the pKd is reported as 3.99.

Each binder was assayed against Inadl_10, Q8NI35 (assay: holdup assay). Settings: plain residues with an end cap or a label only (N-terminal biotin on a linker: ado-ado).
Sequence of Inadl_10, Q8NI35 (Q8NI35 1673-1763): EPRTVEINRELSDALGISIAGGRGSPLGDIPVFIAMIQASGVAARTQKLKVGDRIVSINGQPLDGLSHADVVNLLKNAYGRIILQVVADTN
Design: key: below the threshold = too weak to quantify, mostly under pKd 3.1 to 4
With QRPYRRGSEI [KCNJ18, B7U540] the pKd was “below the threshold”.

Each binder was assayed against T3, NHERF3_3, Q5T2W1 (assay: holdup assay). Settings: plain residues with an end cap or a label only (N-terminal biotin on a linker: ado-ado).
T3 sequence (Q5T2W1 238-333, limits assumed, looked up): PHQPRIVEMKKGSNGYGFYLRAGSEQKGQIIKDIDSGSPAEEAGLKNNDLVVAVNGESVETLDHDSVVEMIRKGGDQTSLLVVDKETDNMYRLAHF
Design: key: below the threshold = too weak to quantify, mostly under pKd 3.1 to 4
In the case of QRPYRRGSEI [KCNJ18, B7U540], the pKd is reported as “below the threshold”.

Each binder was assayed against T4, SNTA1, Q13424 (assay: holdup assay). Settings: plain residues with an end cap or a label only (N-terminal biotin on a linker: ado-ado).
T4 sequence (Q13424 82-180, limits assumed, looked up): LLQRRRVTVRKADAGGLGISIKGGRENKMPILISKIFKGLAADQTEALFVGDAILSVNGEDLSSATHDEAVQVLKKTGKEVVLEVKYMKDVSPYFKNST
Design: key: below the threshold = too weak to quantify, mostly under pKd 3.1 to 4
QRPYRRGSEI [KCNJ18, B7U540] was tested, and the pKd was “below the threshold”.

These binders were tested against T5, RHPN1, Q8TCX5 (assay: holdup assay). Settings: plain residues with an end cap or a label only (N-terminal biotin on a linker: ado-ado).
T5 sequence (Q8TCX5 508-602, limits assumed, looked up): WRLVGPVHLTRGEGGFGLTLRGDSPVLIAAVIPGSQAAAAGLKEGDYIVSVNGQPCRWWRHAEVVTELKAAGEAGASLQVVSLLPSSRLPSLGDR
Design: key: below the threshold = too weak to quantify, mostly under pKd 3.1 to 4
QRPYRRGSEI [KCNJ18, B7U540] gave a pKd of 3.75.

The binders below were run against T6, GRIP1_7, Q9Y3R0 (assay: holdup assay). Settings: plain residues with an end cap or a label only (N-terminal biotin on a linker: ado-ado).
T6 sequence (Q9Y3R0 999-1096, limits assumed, looked up): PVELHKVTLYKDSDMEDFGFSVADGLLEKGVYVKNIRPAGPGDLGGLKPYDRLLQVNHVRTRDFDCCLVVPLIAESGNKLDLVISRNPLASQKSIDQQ
Design: key: below the threshold = too weak to quantify, mostly under pKd 3.1 to 4
For QRPYRRGSEI [KCNJ18, B7U540], the pKd was “below the threshold”.

The binders below were run against T7, CARD11, Q9BXL7 (assay: holdup assay). Settings: plain residues with an end cap or a label only (N-terminal biotin on a linker: ado-ado).
T7 sequence (Q9BXL7 662-765, limits assumed, looked up): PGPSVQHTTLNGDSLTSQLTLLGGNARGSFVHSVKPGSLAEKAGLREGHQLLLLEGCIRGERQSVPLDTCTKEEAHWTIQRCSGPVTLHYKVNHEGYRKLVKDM
Design: key: below the threshold = too weak to quantify, mostly under pKd 3.1 to 4
In the case of QRPYRRGSEI [KCNJ18, B7U540], the pKd is reported as “below the threshold”.

These binders were tested against DLG1_3, Q12959 (assay: holdup assay). Settings: plain residues with an end cap or a label only (N-terminal biotin on a linker: ado-ado).
Sequence of DLG1_3, Q12959 (Q12959 457-571): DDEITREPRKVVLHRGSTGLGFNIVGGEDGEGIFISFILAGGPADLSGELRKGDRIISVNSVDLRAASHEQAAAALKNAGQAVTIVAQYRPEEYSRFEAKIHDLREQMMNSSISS
Design: key: below the threshold = too weak to quantify, mostly under pKd 3.1 to 4
In the case of QRPYRRGSEI [KCNJ18, B7U540], the pKd is reported as “below the threshold”.

Each binder was assayed against T8, SNTB1, Q13884 (assay: holdup assay). Settings: plain residues with an end cap or a label only (N-terminal biotin on a linker: ado-ado).
T8 sequence (Q13884 107-205, limits assumed, looked up): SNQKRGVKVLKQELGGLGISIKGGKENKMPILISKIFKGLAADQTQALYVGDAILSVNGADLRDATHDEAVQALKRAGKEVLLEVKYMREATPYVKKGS
Design: key: below the threshold = too weak to quantify, mostly under pKd 3.1 to 4
For QRPYRRGSEI [KCNJ18, B7U540], the pKd was “below the threshold”.

What follows are binders tested against GRASP, Q7Z6J2 (assay: holdup assay). Settings: plain residues with an end cap or a label only (N-terminal biotin on a linker: ado-ado).
Sequence of GRASP, Q7Z6J2 (Q7Z6J2 96-193): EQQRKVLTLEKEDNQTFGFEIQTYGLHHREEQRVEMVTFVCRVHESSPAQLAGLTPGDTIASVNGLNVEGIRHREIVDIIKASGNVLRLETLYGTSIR
Design: key: below the threshold = too weak to quantify, mostly under pKd 3.1 to 4
QRPYRRGSEI [KCNJ18, B7U540] was tested, and the pKd was “below the threshold”.

These binders were tested against Inadl_6, Q8NI35 (assay: holdup assay). Settings: plain residues with an end cap or a label only (N-terminal biotin on a linker: ado-ado).
Sequence of Inadl_6, Q8NI35 (Q8NI35 1058-1167): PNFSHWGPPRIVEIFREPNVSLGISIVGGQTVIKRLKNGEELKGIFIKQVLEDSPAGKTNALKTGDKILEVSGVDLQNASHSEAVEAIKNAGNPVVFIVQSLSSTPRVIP
Design: key: below the threshold = too weak to quantify, mostly under pKd 3.1 to 4
In the case of QRPYRRGSEI [KCNJ18, B7U540], the pKd is reported as “below the threshold”.

The binders below were run against IL16_3, Q14005 (assay: holdup assay). Settings: plain residues with an end cap or a label only (N-terminal biotin on a linker: ado-ado).
Sequence of IL16_3, Q14005 (Q14005 1107-1207): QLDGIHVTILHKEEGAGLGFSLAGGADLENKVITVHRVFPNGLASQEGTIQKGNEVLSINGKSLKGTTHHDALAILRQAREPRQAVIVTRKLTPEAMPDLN
Design: key: below the threshold = too weak to quantify, mostly under pKd 3.1 to 4
In the case of QRPYRRGSEI [KCNJ18, B7U540], the pKd is reported as “below the threshold”.

Each binder was assayed against GOPC, Q9HD26 (assay: holdup assay). Settings: plain residues with an end cap or a label only (N-terminal biotin on a linker: ado-ado).
Design: key: below the threshold = too weak to quantify, mostly under pKd 3.1 to 4
For QRPYRRGSEI [KCNJ18, B7U540], the pKd was “below the threshold”.

Each binder was assayed against Inadl_2, Q8NI35 (assay: holdup assay). Settings: plain residues with an end cap or a label only (N-terminal biotin on a linker: ado-ado).
Sequence of Inadl_2, Q8NI35 (Q8NI35 238-335): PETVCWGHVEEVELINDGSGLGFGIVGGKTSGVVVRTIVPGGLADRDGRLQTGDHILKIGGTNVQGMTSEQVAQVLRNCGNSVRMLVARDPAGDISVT
Design: key: below the threshold = too weak to quantify, mostly under pKd 3.1 to 4
For QRPYRRGSEI [KCNJ18, B7U540], the pKd was “below the threshold”.

What follows are binders tested against FRMPD2_3, Q68DX3 (assay: holdup assay). Settings: plain residues with an end cap or a label only (N-terminal biotin on a linker: ado-ado).
Sequence of FRMPD2_3, Q68DX3 (Q68DX3 1073-1166): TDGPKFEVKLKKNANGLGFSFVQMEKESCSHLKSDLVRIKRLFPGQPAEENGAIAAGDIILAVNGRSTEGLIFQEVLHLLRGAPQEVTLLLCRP
Design: key: below the threshold = too weak to quantify, mostly under pKd 3.1 to 4
For QRPYRRGSEI [KCNJ18, B7U540], the pKd was “below the threshold”.

Each binder was assayed against GORASP1, Q9BQQ3 (assay: holdup assay). Settings: plain residues with an end cap or a label only (N-terminal biotin on a linker: ado-ado).
Sequence of GORASP1, Q9BQQ3 (Q9BQQ3 1-208): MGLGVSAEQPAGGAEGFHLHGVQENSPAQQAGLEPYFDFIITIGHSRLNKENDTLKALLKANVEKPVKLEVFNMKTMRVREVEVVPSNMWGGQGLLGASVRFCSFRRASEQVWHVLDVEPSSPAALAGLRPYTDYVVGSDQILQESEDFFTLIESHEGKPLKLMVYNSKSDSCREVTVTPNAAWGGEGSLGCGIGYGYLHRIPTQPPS
Design: key: below the threshold = too weak to quantify, mostly under pKd 3.1 to 4
QRPYRRGSEI [KCNJ18, B7U540] was tested, and the pKd was “below the threshold”.

Each binder was assayed against T9, GRIP1_4, Q9Y3R0 (assay: holdup assay). Settings: plain residues with an end cap or a label only (N-terminal biotin on a linker: ado-ado).
T9 sequence (Q9Y3R0 467-571, limits assumed, looked up): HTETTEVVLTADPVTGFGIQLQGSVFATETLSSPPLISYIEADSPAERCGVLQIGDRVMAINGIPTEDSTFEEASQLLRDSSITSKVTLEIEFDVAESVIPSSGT
Design: key: below the threshold = too weak to quantify, mostly under pKd 3.1 to 4
With QRPYRRGSEI [KCNJ18, B7U540] the pKd was “below the threshold”.

The binders below were run against SNX27, Q96L92 (assay: holdup assay). Settings: plain residues with an end cap or a label only (N-terminal biotin on a linker: ado-ado).
Design: key: below the threshold = too weak to quantify, mostly under pKd 3.1 to 4
QRPYRRGSEI [KCNJ18, B7U540] was tested, and the pKd was “below the threshold”.

The binders below were run against GRIP2_4, Q9C0E4 (assay: holdup assay). Settings: plain residues with an end cap or a label only (N-terminal biotin on a linker: ado-ado).
Sequence of GRIP2_4, Q9C0E4 (Q9C0E4 446-548): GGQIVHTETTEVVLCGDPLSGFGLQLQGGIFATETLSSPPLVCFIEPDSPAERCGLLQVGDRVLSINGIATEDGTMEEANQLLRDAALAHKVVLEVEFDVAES
Design: key: below the threshold = too weak to quantify, mostly under pKd 3.1 to 4
QRPYRRGSEI [KCNJ18, B7U540] was tested, and the pKd was “below the threshold”.

Each binder was assayed against SCRIB_1, Q14160 (assay: holdup assay). Settings: plain residues with an end cap or a label only (N-terminal biotin on a linker: ado-ado).
Sequence of SCRIB_1, Q14160 (Q14160 718-814): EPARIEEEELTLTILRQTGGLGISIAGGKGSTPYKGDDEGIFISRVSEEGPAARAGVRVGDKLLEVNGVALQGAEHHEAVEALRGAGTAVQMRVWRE
Design: key: below the threshold = too weak to quantify, mostly under pKd 3.1 to 4
In the case of QRPYRRGSEI [KCNJ18, B7U540], the pKd is reported as “below the threshold”.

Each binder was assayed against T10, TIAM2, Q8IVF5 (assay: holdup assay). Settings: plain residues with an end cap or a label only (N-terminal biotin on a linker: ado-ado).
T10 sequence (Q8IVF5 885-986, limits assumed, looked up): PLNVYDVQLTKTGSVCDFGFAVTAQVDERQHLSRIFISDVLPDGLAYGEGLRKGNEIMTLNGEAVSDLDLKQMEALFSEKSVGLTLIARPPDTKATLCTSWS
Design: key: below the threshold = too weak to quantify, mostly under pKd 3.1 to 4
QRPYRRGSEI [KCNJ18, B7U540] showed a pKd of 4.11.

The binders below were run against T11, DFNB31_3, Q9P202 (assay: holdup assay). Settings: plain residues with an end cap or a label only (N-terminal biotin on a linker: ado-ado).
T11 sequence (Q9P202 811-907, limits assumed, looked up): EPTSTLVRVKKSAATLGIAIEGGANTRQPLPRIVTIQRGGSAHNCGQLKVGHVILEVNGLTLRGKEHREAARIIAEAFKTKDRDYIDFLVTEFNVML
Design: key: below the threshold = too weak to quantify, mostly under pKd 3.1 to 4
With QRPYRRGSEI [KCNJ18, B7U540] the pKd was 3.83.

What follows are binders tested against DLG2_3, Q15700 (assay: holdup assay). Settings: plain residues with an end cap or a label only (N-terminal biotin on a linker: ado-ado).
Design: key: below the threshold = too weak to quantify, mostly under pKd 3.1 to 4
Binder QRPYRRGSEI [KCNJ18, B7U540] has a pKd of 3.91.
